Experimental findings from patent publication US20240010747A1, “ANTI-MRP4 (ENCODED BY ABCC4 GENE) ANTIBODIES AND USES THEREOF” (Kenjockety Biotechnology, Inc., priority 2020, published 2024) are described below.

One assay addresses T1, human ABCC4 (Homo sapiens, UniProt O15439).
T1 construct: expressed in transfected cells
T1 sequence (O15439 1-1325): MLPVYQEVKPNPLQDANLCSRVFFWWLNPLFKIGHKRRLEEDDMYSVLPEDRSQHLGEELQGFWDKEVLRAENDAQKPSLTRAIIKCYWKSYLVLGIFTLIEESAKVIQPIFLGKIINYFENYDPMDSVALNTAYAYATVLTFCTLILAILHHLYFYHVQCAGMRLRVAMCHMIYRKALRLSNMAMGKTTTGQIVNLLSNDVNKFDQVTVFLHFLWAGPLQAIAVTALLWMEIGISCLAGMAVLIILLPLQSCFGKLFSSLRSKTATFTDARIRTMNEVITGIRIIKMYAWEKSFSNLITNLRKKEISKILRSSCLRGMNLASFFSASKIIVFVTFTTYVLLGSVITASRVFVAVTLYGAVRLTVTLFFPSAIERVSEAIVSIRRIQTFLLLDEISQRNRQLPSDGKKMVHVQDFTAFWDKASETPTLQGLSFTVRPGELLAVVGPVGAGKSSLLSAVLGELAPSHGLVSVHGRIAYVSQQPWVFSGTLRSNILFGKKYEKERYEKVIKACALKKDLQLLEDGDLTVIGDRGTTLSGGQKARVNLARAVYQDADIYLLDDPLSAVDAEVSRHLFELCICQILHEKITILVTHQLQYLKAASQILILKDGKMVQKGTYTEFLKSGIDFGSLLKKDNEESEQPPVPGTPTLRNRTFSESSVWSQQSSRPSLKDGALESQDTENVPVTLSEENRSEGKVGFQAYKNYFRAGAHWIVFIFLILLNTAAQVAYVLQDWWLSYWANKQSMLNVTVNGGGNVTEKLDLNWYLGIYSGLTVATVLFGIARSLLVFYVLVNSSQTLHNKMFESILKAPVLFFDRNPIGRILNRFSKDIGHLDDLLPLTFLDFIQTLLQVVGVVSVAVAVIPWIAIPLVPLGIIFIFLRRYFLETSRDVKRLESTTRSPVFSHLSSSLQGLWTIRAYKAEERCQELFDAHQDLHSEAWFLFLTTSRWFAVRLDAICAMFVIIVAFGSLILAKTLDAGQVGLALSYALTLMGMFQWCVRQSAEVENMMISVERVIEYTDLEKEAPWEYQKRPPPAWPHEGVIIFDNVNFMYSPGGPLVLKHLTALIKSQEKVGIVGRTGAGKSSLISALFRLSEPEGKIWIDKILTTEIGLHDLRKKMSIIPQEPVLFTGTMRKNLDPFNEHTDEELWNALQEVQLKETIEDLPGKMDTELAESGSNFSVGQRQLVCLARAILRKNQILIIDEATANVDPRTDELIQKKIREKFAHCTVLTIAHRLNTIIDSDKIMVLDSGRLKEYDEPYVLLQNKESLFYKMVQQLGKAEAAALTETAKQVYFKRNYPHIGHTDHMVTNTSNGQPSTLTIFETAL
The experiment in a line: Flow cytometry (FACS) binding to C6 cells stably transfected to express human ABCC4 (different experiment, Table 4). Conditions: C6 cells stably transfected to express human ABCC4, FACS; different experiment, Table 4. As for the experimental part:
(§1) Binding titration of recombinant antibodies to ABCC4 transfectants was performed by serial dilution of antibodies from about 666 nM. Diluted antibody in flow cytometry buffer was incubated with cells on ice for 30 min. After 2 washes with flow cytometry buffer, bound antibody was detected with PE-labeled F(ab′)2 fragment goat anti-human IgG (Jackson ImmunoResearch) diluted 1:200 in flow cytometry buffer and incubated with cells for 20 min on ice. After 2 washes with flow cytometry buffer fluorescence was measured on an Attune N×T flow cytometer. Data were analyzed with GraphPad Prism 8.0 software to determine EC50's.
(§2) Human embryonic kidney HEK 293T cells and murine C6 (ATCC CCL-107) were transfected with human or cynomolgus ABCC4 cDNA with C-terminal fused FLAG tag in a pMONO-hygro vector with Lipofectamine 3000 (Invitrogen #L3000001). The cells were treated with 0.2 mg/ml and 0.5 mg/ml hygromycin respectively for about 2 weeks while cultivated in DMEM and 10% FBS with 0.2 mg/ml hygromycin and 0.5 mg/ml hygromycin, respectively. The cells were washed with PBS, and stained with […] of anti-FLAG-PE after fixing and permeablization. Clones expressing ABCC4 were single-cell sorted into 200 μl DMEM with 10% FBS using a BD Aria FACS machine and cultivated in 96 well plates using standard techniques in an incubator at 37° C. and 5% CO 2. Two weeks later clones expressing high levels of ABCC4 were screened and amplified.
(§3) Antibody binding to cells was evaluated by flow cytometry. Murine C6 cells stably transfected to express human or cynomolgus ABCC4 were washed once in flow cytometry buffer (PBS+2% FBS+0.02% sodium azide), resuspended at 2×10^6 cells/mL in flow cytometry buffer, and dispensed into 96-well microtiter plates at 0.1 mL/well. Recombinant antibodies were added to cells at 5 ug/mL for initial binding confirmation, or serially diluted from 100 ug/mL in flow cytometry buffer. After incubating cells on ice for 30 min, cells were washed twice with flow cytometry buffer. Bound antibody was detected with PE-labeled F(ab′)2 fragment goat anti-human IgG (Jackson ImmunoResearch) and evaluated on an Attune N×T flow cytometer. EC50 is calculated to be the concentration of antibody that gives half maximal response.
(§4) In a different experiment, using a different C6.cC4 cell line, detecting the binding of anti-ABCC4 antibodies to C6 cells stably transfected to express human ABCC4 measured by FACS and to C6 cells stably transfected to express cynomolgus ABCC4 measured by FACS, the results set forth in Table 4 were obtained. Negative (−)=Rmax (MFI) below background level. Positive (+)=MFI>3× background level.
For orientation: A flow cytometer gives signals particle by particle.

The next assay deals with cynomolgus ABCC4. The assay is described as follows: Flow cytometry (FACS) binding to C6 cells stably transfected to express cynomolgus ABCC4 (different experiment, different C6.cC4 cell line, Table 4). The arrangement: key to Cynomolgus ABCC4 binding: Negative (−)=Rmax (MFI) below background level; Positive (+)=MFI>3× background level. The settings on record: different C6.cC4 cell line, C6 cells stably transfected to express cynomolgus ABCC4, FACS; Table 4. As for the experimental part:
as §1, §2, §3, §4

B1: C4.970: anti-ABCC4 antibody raised in rats; VH SEQ ID NO: 10, VL SEQ ID NO: 131 (antibody, V domains shown)
VH: EVQLVESGPGLVQPSQTLSLTCTVAGFSLTSYNVHWVRQPPGKGLEWMGVIWNTGDTRYDSALKSRLSISKDTSKSQVFLNMNSLQTEDTATYYCARDDNVYYGMHAMDAWGQGASVTVSS
VL: DIKMIQSPSSLSASLGERVTISCRASENINNYLSWYQKKEDGSVKLLIYHTSRLQPGAPSRFSGSGSGKDYSLTISGLDSEDIATYYCQQGYTPPTFGAGTKLELK
B1: the “Human ABCC4 binding” value with human ABCC4 was “+ (Positive (+)=MFI>3× background level)”. The “Cynomolgus ABCC4 binding” value with cynomolgus ABCC4 was “−”.

B2: C4.1006: anti-ABCC4 antibody raised in rats; VH SEQ ID NO: 19, VL SEQ ID NO: 139 (antibody, V domains shown)
VH: EVQLTESGPGLVQPSQTLSLTCTVSGFSLTSYDVHWVRQPPGKGLEWMGRMQNGGSTDYNSALKSRLSISRDTSKSQVFLKMNSVQTEDTAMYFCVRSFIIRGYWGQGASVTVSS
VL: DIVMTQGALPNPVPSGESASITCQSSKSLLYSDGKTYLNWYLQRPGQSPQLLIYWMSIRASGVSDRFSGSGSGTDFTLKISRVEAEDVGVYYCQQFLEFPYTFGAGTKLEIK
For B2, the “Human ABCC4 binding” value in the assay with human ABCC4 is recorded as “+ (Positive (+)=MFI>3× background level)”. Further, the “Cynomolgus ABCC4 binding” value with cynomolgus ABCC4 is “−”.

B3: C4.1047A: anti-ABCC4 antibody raised in rats; VH SEQ ID NO: 20, VL SEQ ID NO: 140 (antibody, V domains shown)
VH: EVQLMESGPGLVQPSQTLSLTCTVSGLSLISNNINWVRQPPGKGLEWIGAISGGGSAFYNSALKSRLSFSRDTSKSQVFLKMNSLQTEDTAIYFCARGGSEDPDYFDYWGQGVMVTVSS
VL: ETVMTQTPSSLAVSAGETVTINCRSSQSLLYSGNQKNYLAWYQQKPGQSPKLLIYWSSTRQYGVPDRFIGSGSGTDFTLTISSVQAEDLAIYYCQQYYDTPLTFGSGTKLELK
Turning to B3, the “Human ABCC4 binding” value with human ABCC4 is given as “+ (Positive (+)=MFI>3× background level)”. The “Cynomolgus ABCC4 binding” value in the assay with cynomolgus ABCC4 is reported as “−”.

B4: C4.1052: anti-ABCC4 antibody raised in rats; VH SEQ ID NO: 20, VL SEQ ID NO: 141 (antibody, V domains shown)
VH: EVQLMESGPGLVQPSQTLSLTCTVSGLSLISNNINWVRQPPGKGLEWIGAISGGGSAFYNSALKSRLSFSRDTSKSQVFLKMNSLQTEDTAIYFCARGGSEDPDYFDYWGQGVMVTVSS
VL: DIVMTQSPSSLAVSAGETVTINCKSSQSLLYSGNQKNYLAWYQQKPGQSPKLLIYWSSTRQSGVPDRFMGSGSGTDFTLTISSVQAEDLAIYYCQQYYDTPLTFGSGTKLEIK
Take B4: the “Human ABCC4 binding” value with human ABCC4 is “+ (Positive (+)=MFI>3× background level)”. For the same molecule, in the assay with cynomolgus ABCC4, the “Cynomolgus ABCC4 binding” value was “−”.

B5: C4.994: anti-ABCC4 antibody raised in rats; VH SEQ ID NO: 17, VL SEQ ID NO: 137 (antibody, V domains shown)
VH: QIQLVQSGPELKKPGESVKISCKASGYTFTDYAIHWVTQAPGKGLKWMGWISTYTGKTTYTDDFKGRFVFSLDASASTANLQINNLKNEDTAAYFCARGGLQWFDYWGQGTLVTVSS
VL: EILLTQSPTAMAASPGEKVTITCRASFRVSYMHWYQQKPGASPKPWIYDTSKLASGVPTRFSGSGSGTSYSFTISSMETEDTATYYCQQWTSNSRTFGGGTKLVLK
As for B5, the “Human ABCC4 binding” value in the assay with human ABCC4 is recorded as “+ (Positive (+)=MFI>3× background level)”. In the assay on cynomolgus ABCC4, the “Cynomolgus ABCC4 binding” value is “−”.

B6: C4.1071: anti-ABCC4 antibody raised in rats; VH SEQ ID NO: 23, VL SEQ ID NO: 145 (antibody, V domains shown)
VH: EVQWKESGPGLVQPSQTLSLTCTVSGFSLTSYGVSWVRQPPGKGLEWIGAIWSGGGTDYNSALKSRLSISRDTSKSQVLLKMNSLQTEDTAMYFCAGNHYFDYWGQGTMVTVSS
VL: AIQVTQSPNSLSASLGDRVTLTCRASQDINNKMAWYQQKPGEVPQLLIYSASTLQSGTPSRFSGSGSGTDFSFTISHLQSEDFATYYCLQGYSLYTFGAGTKLELKRADAAP
Take B6: in the assay with human ABCC4, the “Human ABCC4 binding” value is reported as “+ (Positive (+)=MFI>3× background level)”. Moreover, in the assay with cynomolgus ABCC4, the “Cynomolgus ABCC4 binding” value is “−”.
